# Assay results taken from PMC4955526 (2017).
# Read-outs that look alike come from different tables or passages of the source.
# T1: ALK3-Fc ECD (Homo sapiens, UniProt P36894)
# T1 chain: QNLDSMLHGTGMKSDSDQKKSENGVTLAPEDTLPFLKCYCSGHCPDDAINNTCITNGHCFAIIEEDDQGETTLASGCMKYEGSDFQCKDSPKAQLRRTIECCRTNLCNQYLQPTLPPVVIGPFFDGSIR
# T2: BMPRII-Fc ECD (Homo sapiens, UniProt Q13873)
# T2 chain: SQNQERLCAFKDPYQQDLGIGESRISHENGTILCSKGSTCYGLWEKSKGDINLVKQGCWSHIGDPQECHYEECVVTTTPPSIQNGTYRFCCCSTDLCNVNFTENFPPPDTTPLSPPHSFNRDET
# T3: Cerberus-Fc (Homo sapiens, UniProt O95813)
# T3 chain: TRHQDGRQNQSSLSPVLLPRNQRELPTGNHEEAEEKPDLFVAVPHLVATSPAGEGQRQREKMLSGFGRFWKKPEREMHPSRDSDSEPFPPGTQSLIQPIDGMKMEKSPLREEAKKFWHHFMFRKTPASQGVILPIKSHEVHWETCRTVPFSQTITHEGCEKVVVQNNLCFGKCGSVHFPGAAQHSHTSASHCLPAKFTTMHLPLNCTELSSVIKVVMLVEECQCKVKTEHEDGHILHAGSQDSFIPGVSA
# B1: Cerberus (protein)
# chain: T3 chain
# B2: BMP-4 (protein)
# chain: SPKHHSQRARKKNKNCRRHSLYVDFSDVGWNDWIVAPPGYQAFYCHGDCPFPLADHLNSTNHAIVQTLVNSVNSSIPKACCVPTELSAISMLYLDEYDKVVLKNYQEMVVEGCGCR
# Legend:
# BMP-4 [1] = target: B2; experiment: SPR competition vs ALK3-Fc
# BMP-4 [2] = target: B2; experiment: SPR competition vs ActRIIA-Fc
# BMP-4 [3] = target: B2; experiment: SPR competition vs Cerberus-Fc
# BMP-4 [4] = target: B2; experiment: SPR competition vs ALK3-Fc
# BMP-4 [5] = target: B2; experiment: SPR competition vs ALK3-Fc
# BMP-4 [6] = target: B2; experiment: SPR competition vs BMPRII-Fc
# BMP-4 [7] = target: B2; experiment: SPR competition vs BMPRII-Fc
# BMP-4 [8] = target: B2; experiment: SPR competition vs Cerberus-Fc
# BMP-4 [9] = target: B2; experiment: SPR competition vs Cerberus-Fc
# BMP-4 [10] = target: B2; experiment: SPR competition vs ActRIIA-Fc
# BMP-4 [11] = target: B2; experiment: SPR competition vs BMPRII-Fc
# BMP-4 [12] = target: B2; experiment: SPR competition vs ActRIIA-Fc
# BMP-4 [13] = target: B2; experiment: SPR competition vs BMPRII-Fc
# BMP-4 [14] = target: B2; experiment: SPR competition vs Cerberus-Fc
# BMP-4 [15] = target: B2; experiment: SPR competition vs ActRIIA-Fc
# BMP-4 [16] = target: B2; experiment: SPR competition vs ActRIIA-Fc
# BMP-4 [17] = target: B2; experiment: SPR competition vs ALK3-Fc
# ALK3-Fc ECD = target: T1, ALK3-Fc ECD; experiment: SPR
# BMPRII-Fc ECD = target: T2, BMPRII-Fc ECD; experiment: SPR
# ActRIIA-Fc ECD [18] = target: T4, ActRIIA-Fc ECD (Homo sapiens, UniProt P27037); experiment: SPR
# T4 sequence (P27037 20-135): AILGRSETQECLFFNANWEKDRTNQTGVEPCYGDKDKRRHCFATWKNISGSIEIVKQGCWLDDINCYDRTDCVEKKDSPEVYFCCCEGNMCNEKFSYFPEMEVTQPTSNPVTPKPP
# Cerberus-Fc [19] = target: T3, Cerberus-Fc; experiment: SPR
# ActRIIA-Fc ECD [20] = target: T4, ActRIIA-Fc ECD; experiment: SPR; remark: listed apart in the source
# Cerberus-Fc [21] = target: T3, Cerberus-Fc; experiment: SPR
binder,measurement,setting,value
B1,IC50,BMP-4 [1],134 nM
same,IC50,BMP-4 [2],239 nM
same,IC50,BMP-4 [3],99.7 nM
same,IC50,BMP-4 [4],245 nM
same,IC50,BMP-4 [5],303 nM
same,IC50,BMP-4 [6],132 nM
same,IC50,BMP-4 [7],166 nM
same,IC50,BMP-4 [8],46.6 nM
same,IC50,BMP-4 [9],56.7 nM
same,IC50,BMP-4 [10],56 nM
same,IC50,BMP-4 [11],153 nM
same,IC50,BMP-4 [12],266 nM
same,IC50,BMP-4 [13],138 nM
same,IC50,BMP-4 [14],57.6 nM
same,IC50,BMP-4 [15],305 nM
same,IC50,BMP-4 [16],58 nM
same,IC50,BMP-4 [17],289 nM
B2,Kd,ALK3-Fc ECD,0.193 nM
same,Kd,BMPRII-Fc ECD,8.13 nM
same,Kd,ActRIIA-Fc ECD [18],3.26 nM
same,Kd,Cerberus-Fc [19],2.24 nM
same,Kd,ActRIIA-Fc ECD [20],2.85 nM
same,Kd,Cerberus-Fc [21],2.73 nM
